The target in experiment [1] is T1, human CTLA4 (soluble analyte of the Biacore assays of Examples 3-3, 4 and 5) (human, UniProt P16410 36-161).
T1 construct: also called hCTLA4
T1 sequence: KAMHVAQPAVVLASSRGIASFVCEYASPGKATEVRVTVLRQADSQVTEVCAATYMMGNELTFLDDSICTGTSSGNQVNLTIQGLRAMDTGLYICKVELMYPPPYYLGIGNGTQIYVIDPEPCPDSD
Description: SPR 37C, Ab on Protein G, 1000 nM CTLA4, no ATP. How it is done:
(§1) Next, by interacting with a human CTLA4 solution prepared in a running buffer containing ATP to the desired concentration, or a human CTLA4 solution prepared in a running buffer containing no ATP, the binding ability of the antibody to human CTLA4 in the presence or absence of ATP was evaluated. Chips were regenerated with 25 mM NaOH and 10 mM Glycine-HCl (pH 1.5), and assay was performed by repeatedly capturing antibodies. The dissociation constant of each antibody for CTLA4 was calculated using Biacore T200 Evaluation Software 2.0. Specifically, the binding rate constant ka (L/mol/s) and the dissociation rate constant kd (1/s) were calculated by global fitting of the sensorgrams obtained by the measurement, using a 1:1 Langmuir binding model. The dissociation constant KD (mol/L) was calculated from those values. Alternatively, the dissociation constant KD (mol/L) was calculated by the steady state model. In addition, the binding amount of CTLA4 per unit amount of antibody was calculated by correcting the amount of CTLA4 bound as calculated from the sensorgram obtained by the assay with the amount of antibody captured onto the chip surface.
(§2) Biacore T200 was used to evaluate the binding of the generated variants to ATP and to human CTLA4. The assay of binding to ATP was performed at 37° C. using 20 mM ACES (pH 7.4), 150 mM NaCl, 2 mM MgCl₂, 0.05% Tween20 as the running buffer. First, Sure Protein A (GE Healthcare) was immobilized onto a Series S Sensor Chip CM3 (GE Healthcare), and the antibodies were captured onto the chip by interacting an antibody solution prepared in the running buffer. Next, the binding ability to the antibody was evaluated by interacting with an ATP solution prepared in the running buffer. Chips were regenerated with 25 mM NaOH and 10 mM Glycine-HCl (pH 1.5) and assay was performed by repeatedly capturing antibodies. For the binding amount of each antibody to ATP, the binding amount of ATP per unit amount of antibody was calculated by correcting the amount of binding when ATP was injected at a concentration of 100 nM with the amount of antibody captured onto the chip surface. Binding to human CTLA4 was measured using Biacore T200 by the method described in Example 3-3.

In experiment [2] the target is T1, human CTLA4 (soluble analyte of the …). Description: SPR 37C, Ab on Protein G, 1000 nM CTLA4, ATP 1 uM. On the procedure:
as §1, §2

Experiment [3] has the same target. Description: SPR 37C, Ab on Protein G, 1000 nM CTLA4, ATP 10 uM. On the procedure: as §1, §2
The target is the same in experiment [4]. Description: SPR 37C, ATP 10 µM. On the procedure:
as §1, with “Biacore T200 was used to measure the binding of the generated antibodies to human CTLA4. 20 mM ACES (pH 7.4), 150 mM NaCl, 2 mM MgCl₂, 0.05% Tween 20 with ATP added to the desired concentration was used as the running buffer, and the assay was performed at 37° C. First, Protein G (CALBIOCHEM) was immobilized onto a Series S Sensor Chip CM3 (GE Healthcare), and the antibodies were captured by interacting an antibody solution prepared in an ATP-free running buffer with the chip. Next,” for “Next,”, “In addition, the binding amount of CTLA4 per unit amount of antibody was calculated by correcting the amount of CTLA4 bound as calculated from the sensorgram obtained by the assay with the amount of antibody captured onto the chip surface.” left out

For experiment [5] the target is unchanged. In words: SPR 37C, Ab on Protein G, 1000 nM CTLA4, ATP 100 uM. On the procedure:
as §1, §2

The target of experiment [6] is T2, mCTLA4-His (mouse, UniProt P09793 36-161).
T2 construct: also called mouse CTLA4; Mouse CTLA4
Description: SPR 37C, ATP 100 µM.

Numbering of substitutions follows the chain as printed.

B1: 04H1389-G1m/04L1086-lam1 (antibody, human IgG1, lambda, V domains shown)
VH: EVQLVESGGGLVKPGGSLRLSCAASGFTFSSKTMNWVRQAPGKGLEWVSSISTQSHYIYYAESVKGRFTISRDNAKNSLYLQMNSLRAEDTAVYYCARYGKREDMLWVFDYWGQGTLVTVSS
VL: QSALTQPPSASGSPGQTVTISCDGPSTGVGDYNYVHWYQQHPGKAPKLMIYFTSKKPSGVPDRFSGSKSGNTASLTVSGLQAEDEADYFCQTYAAPLGPMFGGGTKLTVLG
B1: the “Binding to Human CTLA4 (amount per unit antibody)” value in experiment [1] turned out to be 0.022; in experiment [2], 0.138; in experiment [3], 0.189; in experiment [5], 0.193. The “fold enhancement of binding ability against the parent antibody 04H1207-G1m/04L1086-lam1” value in experiment [4] is roughly 10 fold.

B2: 04H1382-G1m/04L1086-lam1 (antibody, human IgG1, lambda, V domains shown)
VH: B1 VH with E62R
VL: B1 VL
On to B2, for which, in experiment [4], the “fold enhancement of binding ability against the parent antibody 04H1208-G1m/04L1086-lam1” value was roughly 10 fold.

B3: 04H1208-G1m/04L1407-k0MT (antibody, human IgG1, kappa, V domains shown)
VH: B1 VH with Q54R, H56G, E62R
VL: DIVMTQSPLSLPVTPGEPASISCDGPSTDVGDYNWVHWYQQKPGQAPRLLIYYTSSKPEGVPDRFSGSGSGTDFTLKISRVEAEDVGVYYCQTYAAPLGPTFGQGTKLEIKR
With B3, the “fold weaker binding ability to mouse CTLA4 than to human CTLA4” value in experiment [6] was roughly 2 fold.

The record behind these values is patent US20260092115A1 (Chugai, published 2026).
